Data as given in paper PMC7616679 (Nature, 2024).

What was measured:
[1] = molecular target: T1, Recombinant Ce C19L1 full-length protein, untagged (C. elegans, UniProt O16216 1-533); assay: pull-down
T1 sequence: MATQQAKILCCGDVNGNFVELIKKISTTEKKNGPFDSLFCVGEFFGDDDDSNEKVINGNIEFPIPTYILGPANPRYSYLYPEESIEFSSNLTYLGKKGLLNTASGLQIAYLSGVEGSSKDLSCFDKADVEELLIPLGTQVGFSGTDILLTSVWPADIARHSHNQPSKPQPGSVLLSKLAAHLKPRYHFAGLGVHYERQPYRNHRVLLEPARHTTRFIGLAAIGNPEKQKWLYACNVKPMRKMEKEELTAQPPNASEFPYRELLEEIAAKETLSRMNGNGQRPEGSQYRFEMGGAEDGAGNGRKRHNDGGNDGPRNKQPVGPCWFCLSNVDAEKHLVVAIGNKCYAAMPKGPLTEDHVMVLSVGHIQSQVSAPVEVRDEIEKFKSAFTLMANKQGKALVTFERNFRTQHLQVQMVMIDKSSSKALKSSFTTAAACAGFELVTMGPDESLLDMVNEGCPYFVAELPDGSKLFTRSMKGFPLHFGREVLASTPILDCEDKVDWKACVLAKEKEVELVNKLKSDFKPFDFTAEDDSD

[2] = molecular target: Recombinant Ce DHX15 (10x-His-FLAG-3C-ceDHX15) (C. elegans, UniProt Q20875 1-739); assay: pull-down
Chain of Recombinant Ce DHX15 (10x-His-FLAG-3C-ceDHX15) (Q20875 whole entry): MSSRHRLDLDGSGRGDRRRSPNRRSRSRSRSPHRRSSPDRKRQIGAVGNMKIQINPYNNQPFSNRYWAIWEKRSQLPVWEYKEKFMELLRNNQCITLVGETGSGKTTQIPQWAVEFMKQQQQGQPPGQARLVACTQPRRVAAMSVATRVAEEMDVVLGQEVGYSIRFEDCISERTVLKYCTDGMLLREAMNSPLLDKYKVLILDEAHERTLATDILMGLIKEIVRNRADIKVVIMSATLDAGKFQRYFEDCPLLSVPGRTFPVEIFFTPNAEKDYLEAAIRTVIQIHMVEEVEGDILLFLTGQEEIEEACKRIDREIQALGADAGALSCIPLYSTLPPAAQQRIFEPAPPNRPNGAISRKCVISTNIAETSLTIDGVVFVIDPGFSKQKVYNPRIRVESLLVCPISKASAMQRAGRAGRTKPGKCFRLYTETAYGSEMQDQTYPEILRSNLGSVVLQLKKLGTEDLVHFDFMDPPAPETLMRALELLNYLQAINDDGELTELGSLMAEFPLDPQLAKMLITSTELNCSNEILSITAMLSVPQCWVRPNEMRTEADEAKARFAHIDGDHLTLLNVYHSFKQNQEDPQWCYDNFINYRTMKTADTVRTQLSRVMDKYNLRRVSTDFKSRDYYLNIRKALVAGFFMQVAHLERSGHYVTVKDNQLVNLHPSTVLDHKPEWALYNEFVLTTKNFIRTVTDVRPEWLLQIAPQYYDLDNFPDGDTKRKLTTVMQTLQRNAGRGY

[3] = molecular target: T2, Recombinant Ce C19L1(1-277), untagged (C. elegans, UniProt O16216 1-277); assay: pull-down
T2 sequence: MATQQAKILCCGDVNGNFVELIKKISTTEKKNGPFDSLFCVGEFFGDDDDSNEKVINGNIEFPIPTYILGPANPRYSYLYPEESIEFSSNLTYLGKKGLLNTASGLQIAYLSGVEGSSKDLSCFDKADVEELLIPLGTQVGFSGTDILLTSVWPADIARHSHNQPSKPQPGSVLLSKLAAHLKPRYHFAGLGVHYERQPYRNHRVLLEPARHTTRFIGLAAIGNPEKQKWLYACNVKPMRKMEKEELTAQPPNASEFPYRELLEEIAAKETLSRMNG

[4] = molecular target: the molecule itself; assay: cryo-EM structure

## fluorescein-EDEKNKLSAKILKAEMKGDTDLVKKLKRKLESM-biotin [ceC19L2(75-106)-wildtype peptide]
[1]
  binding result: binds

## fluorescein-SMNKGNISFVRGAGKTVQQNTTENPDEIDLD-biotin [ceSYF1(788-818)-wildtype peptide]
[2]
  binding result: binds
[3]
  binding result: binds

B1: 3xFLAG-PRP19 (C. elegans, prp-19) (natural protein)
chain: MSFVCGISGELTEDPVVSQVSGHIFDRRLIVKFIAENGTDPISHGELSEDQLVSLKSGGTGSAPRNVSGTSIPSLLKMLQDEWDTVMLNSFSLRQQLQIARQELSHSLYQHDAACRVISRLSKELTAAREALSTLKPHTSAKVDDDVSIDESEDQQGLSEAILAKLEEKSKSLTAERKQRGKNLPEGLAKTEELAELKQTASHTGIHSTGTPGITALDIKGNLSLTGGIDKTVVLYDYEKEQVMQTFKGHNKKINAVVLHPDNITAISASADSHIRVWSATDSSSKAIIDVHQAPVTDISLNASGDYILSASDDSYWAFSDIRSGKSLCKVSVEPGSQIAVHSIEFHPDGLIFGTGAADAVVKIWDLKNQTVAAAFPGHTAAVRSIAFSENGYYLATGSEDGEVKLWDLRKLKNLKTFANEEKQPINSLSFDMTGTFLGIGGQKVQVLHVKSWSEVVSLSDHSGPVTGVRFGENARSLVTCSLDKSLRVFSF
[4]
  stoichiometry N: 4
